Data as given in patent US20080312140A1 (published 2008).
Starred links: 1 amine or outer side, 2 acyl side, 3 side chain; linkers in the order of their positions; H or OH if unused. No end group written: not given here. N(2-Aminoethyl)Gly = O=C(CN(CCN[*:3])[*:1])[*:2]

B1: C2-1 (peptide)
peptide: RQGSFG-NH2
modifications: bridge (positions not given here) via N(2-Aminoethyl)Gly; also: backbone cyclised via N-(aminoethyl)Gly building unit and dicarboxylic acid bridge (m=2), structure in drawing only
B2: C2-2 (peptide)
peptide: RQGSFG-NH2
modifications: bridge (positions not given here) via N(2-Aminoethyl)Gly; also: backbone cyclised via N-(aminoethyl)Gly building unit and dicarboxylic acid bridge (m=3), structure in drawing only
B3: C2-3 (peptide)
peptide: RQGSFG-NH2
modifications: bridge (positions not given here) via N(2-Aminoethyl)Gly; also: backbone cyclised via N-(aminoethyl)Gly building unit and dicarboxylic acid bridge (m=4), structure in drawing only

Target: HIV-1 envelope glycoprotein gp120 (HIV-1)
Assay: cell-based or functional assay

First: B1
Second: B2
The “IC50 of infection inhibition (Cell Infection Inhibition Assay, CD4 expressing Hela P4 cells)” value of the first is 2.5-fold lower: 33 µM for the first, 81 µM for the second.

B3 was tested, and the “IC50 of infection inhibition (Cell Infection Inhibition Assay, CD4 expressing Hela P4 cells)” value was 81 µM.
